Results reported in article PMC3088474 (Current biology : CB, 2011).

Biological target: T1, MBP-Rng2-1306-end (fission yeast, UniProt O14188 1306-1489)
T1 sequence (looked up): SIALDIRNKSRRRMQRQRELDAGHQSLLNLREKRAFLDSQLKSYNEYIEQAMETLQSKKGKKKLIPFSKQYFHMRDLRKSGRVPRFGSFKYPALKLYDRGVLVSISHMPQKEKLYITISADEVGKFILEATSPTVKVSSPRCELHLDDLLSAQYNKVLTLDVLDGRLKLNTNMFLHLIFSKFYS
Experiment: pull-down

B1: GST-Mid1 1–100 (domain or fragment, fission yeast, UniProt P78953 1-100, looked up)
chain: MKEQEFSYREAKDVSLDSKGLENSFLSSPNREKTPLFFEGNSNETSGYDQTKNFTHGDGDMSLGNLSELNVATDLLESLDLRSMYMHGYGHLDSSFSSQH
B1: binds.
